Assay results reported in the supplement of paper PMC10567573.
± gives the standard deviation.

Assay: protein stability index of a GFP-peptide fusion (GPS, HEK-293T) (PSI 1-6); higher = more stable
Details: c terminus: a fixed tail appended
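Note: 24-mer peptide tiles fused after GFP, lentivirally expressed, FACS-sorted into six equal bins by GFP/DsRed ratio, decoded by Illumina sequencing, PSI is the read-weighted mean bin number.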

Row | Sequence | protein stability index (treatment: DMSO) | protein stability index (treatment: MLN4924 1 uM, 8 h)
1 | FLSDVTAAVKENQMTPTNLAVCLA [DLC1] | 2.72 ± 0.23 | 2.92 ± 0.29
2 | LLEPEVADGGGAPPQGGCGGGGCD [KCNA3] | 5.31 ± 0.22 | 5.35 ± 0.11
3 | DGLDLDWEYPGSQGSPAVDKERFT [CHIT1] | 4.94 ± 0.21 | 5.04 ± 0.19
4 | LINKMLTINPSKRITAAEALKHPW [CAMK2A] | 2.16 ± 0.11 | 2.17 ± 0.18
5 | SLEPFRPQQAPQDDGSQDPEVLDR [PWWP2B] | 5.51 ± 0.16 | 5.53 ± 0.14
6 | KAAGSVSKSTQFEYAWCLVRSKYN [FIS1] | 2.24 ± 0.57 | 2.17 ± 0.37
7 | SVTGYSFASDGDSGTCSPLRHSFQ [ADD1] | 3.28 ± 0.25 | 3.11 ± 0.36
8 | GANINAFDKKDRRALHWAAYMGHL [ANKRD44] | 2.3 ± 0.21 | 2.36 ± 0.31
9 | EGFHNYHHSFPYDYSASEYRWHIN [SCD] | 2.37 ± 0.18 | 2.48 ± 0.18
10 | QPTIVEALLGYEMVQVACGASHVL [NEK8] | 2.75 ± 0.45 | 2.74 ± 0.7
11 | VMLKRIHSLYRRTGASFQKAQQEF [SCAMP3] | 2.49 ± 0.35 | 2.68 ± 0.46
12 | RDLAARWKKLVLVDRNTRPGPQDP [ELOA2] | 3.38 ± 0.19 | 3.49 ± 0.23
13 | YEWARDHRAHHKFSETHADPHNSR [SCD] | 3.96 ± 0.28 | 4.12 ± 0.18
14 | PAHLYFQAHGSEGLTFQGLLPLTE [PLEKHN1] | 2.85 ± 0.045 | 2.9 ± 0.083
15 | GGDAGHAPFPPPPAADGARAPRSP [C6orf223] | 5.39 ± 0.28 | 5.5 ± 0.27
16 | LPVRPQTNALIGGPMPMSMPNVMT [CLINT1] | 3.33 ± 0.11 | 3.38 ± 0.18
17 | ALIDRPAPYFERSSSKRYTMSRSL [EPB41L3] | 2.8 ± 0.31 | 3.12 ± 0.58
18 | LCGQAAGAASLPSELIVHIFSFLP [FBXO33] | 2.54 ± 0.72 | 2.29 ± 0.18
19 | PELMEHTEAESEQEGSSGMELSWG [TEX19] | 5.4 ± 0.32 | 5.32 ± 0.35
20 | GGYGSSFGGVDGLLAGGEKATMQN [KRT17] | 4.06 ± 0.12 | 4.395 ± 0.027
21 | FLWGPRALIETSYVKVLHHMVKIS [MAGEA6] | 2.14 ± 0.89 | 2.59 ± 0.65
22 | TALVTVSSEEFEDKWFRKIKDHFC [C8orf76] | 2.33 ± 0.16 | 2.54 ± 0.25

Row | Sequence | protein stability index (treatment: DMSO) | protein stability index (treatment: MLN4924 1 uM, 8 h)
23 | ELPNGSVKEAPAPTPTSLEVSSPP [PDZK1] | 5.04 ± 0.12 | 5.09 ± 0.17
24 | CKVFGIHKACEVAPLQSVFQGQKT [TRIM63] | 2.81 ± 0.26 | 2.96 ± 0.39
25 | GRSGPGCAVLDDSIYLVGGYSWSM [KLHL14] | 2.7 ± 0.39 | 2.38 ± 0.63
26 | LEDAAGGDSASEEKSGSAEPFVLP [FBXO34] | 5.46 ± 0.37 | 5.34 ± 0.33
27 | AVVSQMDQEQGSSFQMSEGSEAAV [FAM189A2] | 5.46 ± 0.29 | 5.44 ± 0.17
28 | PETKQRKLSPLRLSVSNNQEPDFI [KMT2E] | 4.16 ± 0.24 | 4.38 ± 0.32
29 | EAEREFILNLKKKECKDRGFEYDG [NLN] | 4.58 ± 0.41 | 4.91 ± 0.32
30 | TVNIHRLHVKRSMGWKKACDELEL [ZMYND11] | 2.61 ± 0.32 | 2.77 ± 0.36
31 | QHNLCRKCASDIFQASNPYLPTRG [TRIM55] | 2.29 ± 0.26 | 2.45 ± 0.22
32 | PEEPLNGESYESCCPTSREAAVEA [FEM1A] | 5.37 ± 0.18 | 5.28 ± 0.31
33 | EANEEFALRVQQLVAKELGQTGTR [AUP1] | 3.87 ± 0.35 | 3.99 ± 0.45
34 | EVGKSFERHKLKRQDADAWTLYKI [SMG5] | 2.78 ± 0.4 | 2.9 ± 0.32
35 | NAPKFQAENLDVKINENVAAGMRF [PCDHGA10] | 3.77 ± 0.61 | 3.86 ± 0.45
36 | KMRMGGRVDFEEFVELIGPKLREE [CABP4] | 3.62 ± 0.11 | 3.31 ± 0.12
37 | FATFCGGLAANGALQRLDLRNNQI [LRRC45] | 2.36 ± 0.19 | 2.37 ± 0.23
38 | IPPMAQPGLPPVPGAPGMPPGIPP [ZNF207] | 4.29 ± 0.24 | 4.4 ± 0.35
39 | AVSCVFLAFVIVLLAHRLRRWHKS [PCDHGA10] | 2.33 ± 0.36 | 1.92 ± 0.23
40 | HQSLSLASSPKGTIENILDNDPRD [CDC25A] | 5.3 ± 0.2 | 5.22 ± 0.18
41 | DRENGSDNLPSSAGSGDKPLSDPA [TPD52L2] | 5.49 ± 0.26 | 5.45 ± 0.29
42 | TLLAVGCNDGRIVIWDFLTRGIAK [RBBP5] | 2.65 ± 0.51 | 2.55 ± 0.84
43 | LEEQGATWRHRETLIIAVLVSASI [FATE1] | 2.77 ± 0.49 | 2.7 ± 0.44
44 | HIKFPIDYPYSPPTFRFLTKMWHP [UBE2R2] | 2.3 ± 0.32 | 2.24 ± 0.39
